In the test the target is Trimeric polymerase with PB2 71-73A (PB1 WT, PB2 71-73A, strep-tagged PA). The conditions noted are these: parent: est. 1.0; read off a plot.

Take “Trimeric influenza A virus A/WSN/1933 (H1N1) polymerase (PB1 wild type, PB2, HA-tagged PA) (from UniProt P15659) PB2 71-73A”: the ratio to parent is 0.5 n-fold of WT.

The values above are taken from publication PMC9922279.
